Experiments:
[1] = target: T1, ECD of human recombinant FLT3 (Fc-ECDhFLT3) (Homo sapiens, UniProt P36888); experiment: ELISA binding to ECD of human recombinant FLT3; conditions: antibody at 10 μg/mL
T1 construct: ECD of human or mouse recombinant FLT3 produced in NSO cell line; host or cells: NSO cell line
T1 sequence (P36888 27-543 limits assumed): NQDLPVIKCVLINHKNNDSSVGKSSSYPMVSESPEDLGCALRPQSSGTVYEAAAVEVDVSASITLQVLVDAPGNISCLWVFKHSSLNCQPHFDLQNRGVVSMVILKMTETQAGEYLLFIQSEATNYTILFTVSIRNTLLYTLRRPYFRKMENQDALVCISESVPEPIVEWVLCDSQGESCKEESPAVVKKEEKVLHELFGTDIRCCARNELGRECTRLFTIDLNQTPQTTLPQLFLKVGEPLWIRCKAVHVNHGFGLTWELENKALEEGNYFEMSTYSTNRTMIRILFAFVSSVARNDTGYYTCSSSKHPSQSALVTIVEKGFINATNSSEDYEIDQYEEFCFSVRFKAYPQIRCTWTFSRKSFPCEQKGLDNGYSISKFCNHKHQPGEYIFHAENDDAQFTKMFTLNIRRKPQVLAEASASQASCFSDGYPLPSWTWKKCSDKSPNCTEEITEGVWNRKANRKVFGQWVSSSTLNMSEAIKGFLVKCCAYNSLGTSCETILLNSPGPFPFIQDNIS
Protocol: The A3 antibody directed against FLT3 was produced by a phage display strategy and the antibody selection was performed by using ECD of human or mouse recombinant FLT3 produced in NSO cell line. To identify antibodies cross-reacting with both human and mouse FLT3, phages were selected by three rounds of panning, according to methods well known in the art (Philibert, P. et al. A focused antibody library for selecting scFvs expressed at high levels in the cytoplasm. BMC Biotechnol. 7, 81; 2007), first against the ECD of human FLT3, then against the ECD of mouse FLT3 and then against the ECD of human FLT3. A batch of one selected antibody named A3 was tested for its ability to bind to the ECD of human or mouse recombinant FLT3 using an ELISA technique.

FLT3 = target: T2, FLT3 (Homo sapiens, UniProt P36888); experiment: FL-induced FLT3 auto-phosphorylation assay in RS4-11 cells; assay type: cell-based; conditions: antibody at 10 and 100 μg/ml
T2 construct: expressed in transfected cells; host or cells: RS4-11
T2 sequence (P36888 27-993): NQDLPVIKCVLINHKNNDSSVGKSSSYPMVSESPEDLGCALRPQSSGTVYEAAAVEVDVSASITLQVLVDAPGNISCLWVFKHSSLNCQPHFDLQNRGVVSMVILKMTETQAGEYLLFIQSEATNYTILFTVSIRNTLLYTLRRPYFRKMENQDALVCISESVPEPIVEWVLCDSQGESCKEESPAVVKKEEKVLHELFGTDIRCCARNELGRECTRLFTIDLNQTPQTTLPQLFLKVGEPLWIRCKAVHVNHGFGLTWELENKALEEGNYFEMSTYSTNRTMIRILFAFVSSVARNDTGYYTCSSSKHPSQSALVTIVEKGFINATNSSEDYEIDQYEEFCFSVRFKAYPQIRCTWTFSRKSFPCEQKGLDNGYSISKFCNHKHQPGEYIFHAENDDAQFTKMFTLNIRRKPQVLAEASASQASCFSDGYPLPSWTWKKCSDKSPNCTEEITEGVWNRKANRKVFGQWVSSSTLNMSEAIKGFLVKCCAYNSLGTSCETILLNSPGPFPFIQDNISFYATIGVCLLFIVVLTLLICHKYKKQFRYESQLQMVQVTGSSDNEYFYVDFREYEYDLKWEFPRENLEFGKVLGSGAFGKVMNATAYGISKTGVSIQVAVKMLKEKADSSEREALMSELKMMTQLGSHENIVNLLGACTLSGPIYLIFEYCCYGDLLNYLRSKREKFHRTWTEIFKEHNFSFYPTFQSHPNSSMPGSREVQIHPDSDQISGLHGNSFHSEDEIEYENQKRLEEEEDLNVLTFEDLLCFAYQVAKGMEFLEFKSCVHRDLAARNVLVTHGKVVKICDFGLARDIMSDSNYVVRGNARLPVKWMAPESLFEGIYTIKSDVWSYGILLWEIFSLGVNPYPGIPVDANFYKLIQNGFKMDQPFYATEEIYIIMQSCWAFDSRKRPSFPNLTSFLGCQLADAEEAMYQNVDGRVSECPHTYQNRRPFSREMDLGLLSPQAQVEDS
Protocol: Cell. RS4-11 cells, used for auto-phosphorylation assays, were maintained in RPMI-1640 (Invitrogen) and 10% Fetal Calf Serum. They were transfected as in the case of HEK cells (see above)
Auto-Phosphorylation assays. A density of 50,000 cells per well was used to carry out this assay in suspension in 384-well small volume plates to determine the degree of phosphorylation of FLT3. In the aim to discover antagonist compounds and to develop this assay, we were determined the efficiency of FL on RS4-11 cells.
Cells were incubated with 1 nM of rh-FL in the presence of increasing concentrations of the antibody. In the plates containing RS4-11 cells (5 μL/well), 5 μL of compounds to be tested were added and incubated for 1 h at room temperature prior to the addition of 2 μof rh-FL at 0.1 μM. After incubation of 3 min at room temperature of rh-FL, 4 μl of lysis buffer were added and incubated for 2 h at room temperature. A mix of anti-FLT3 and an anti-TYR-969 FLT3 antibodies labeled with Lumi4-Tb and d2 respectively (4 μL) diluted in Tag-lites) labelling medium, were added on cell lysate. Plates were then incubated at room temperature for 2 h or overnight before signal detection (as above).

B1: A3 antibody: human monoclonal antibody against FLT3; VH SEQ ID NO:1, VL SEQ ID NO:2 (antibody, V domains shown)
VH: EVQLVESGGSLVKPGGSLRLSCAASGFTFSNSYMNWVRQAPGKGLEWISDISGSSRDIDYADFVKGRFTISRDNATNSLYLQMNSLRAEDTAVYYCVRSGNSGMDVWGRGTLVTVSS
VL: QSVLTQPASVSGSPGQSITISCAGTSSDVGGGYYVSWYQQHPGKAPKLMIYYDSYRPSGVSNRFSGSKSGNTASLTISGLQAEDEADYYCSSYTNNSTRVFGGGTKLEIK
modifications: Synthetic VH domain of A3; Synthetic VL region of A3
ELISA immunoreactivity against Fc-ECDhFLT3 [1]: generates immunoreactivity
FL-induced FLT3 autophosphorylation (FLT3): inhibits FL-induced FLT3 autophosphorylation

— patent publication US10781452B2, “FLT3 receptor antagonists for the treatment or the prevention of pain disorders” (INSTITUT NATIONAL DE LA SANTE ET DE LA RECHERCHE MEDICALE …, priority 2010, dated 2020)
